We go through 1 molecule from publication PMC29063.

The assay has as its target GST-p35-C/EBPβ. Briefly: pull-down.

B1: Elk-1 (wild type), in vitro translated (natural protein)
chain: MDPSVTLWQFLLQLLREQGNGHIISWTSRDGGEFKLVDAEEVARLWGLRKNKTNMNYDKLSRALRYYYDKNIIRKVSGQKFVYKFVSYPEVAGCSTEDCPPQPEVSVTSTMPNVAPAAIHAAPGDTVSGKPGTPKGAGMAGPGGLARSSRNEYMRSGLYSTFTIQSLQPQPPPHPRPAVVLPSAAPAGAAAPPSGSRSTSPSPLEACLEAEEAGLPLQVILTPPEAPNLKSEELNVEPGLGRALPPEVKVEGPKEELEVAGERGFVPETTKAEPEVPPQEGVPARLPAVVMDTAGQAGGHAASSPEISQPQKGRKPRDLELPLSPSLLGGPGPERTPGSGSGSGLQAPGPALTPSLLPTHTLTPVLLTPSSLPPSIHFWSTLSPIAPRSPAKLSFQFPSSGSAQVHIPSISVDGLSTPVVLSPGPQKP
modifications: labeled with [35S] methionine
B1 gave a percent of input retained on the beads of 35 to 45%.
